Source: PMC4490564, “Molecular snapshots of the Pex1/6 AAA+ complex in action” (Nature Communications, 2015)

How the values were obtained:
Test in all cases: negative stain EM (single-particle analysis, 3D reconstruction); purified complexes at 40-50 ug/ml, incubated with ATPγS (2.5 mM), ATP (5 mM), ADP (5 mM) or ADP-AlFx, adsorbed on carbon grids, stained with 2% uranyl acetate; threefold symmetry imposed
Details in all cases: both partners purified
[1] = biological target: T1, Pex6 (wild type, overexpressed in yeast) (yeast, UniProt P33760 1-1030)
T1 construct: Pex6, yeast; full-length PEX6 amplified from genomic DNA, in pRS425GAL or pYES2; also called Pex6 of Δ188Pex1/Pex6 and of Pex1WB/6; source: S. cerevisiae, overexpressed (2% galactose), purified (IgG Sepharose, TEV cleavage, glycerol gradient); not shown: protein A (ProA), C-terminal, cleaved
T1 sequence (looked up): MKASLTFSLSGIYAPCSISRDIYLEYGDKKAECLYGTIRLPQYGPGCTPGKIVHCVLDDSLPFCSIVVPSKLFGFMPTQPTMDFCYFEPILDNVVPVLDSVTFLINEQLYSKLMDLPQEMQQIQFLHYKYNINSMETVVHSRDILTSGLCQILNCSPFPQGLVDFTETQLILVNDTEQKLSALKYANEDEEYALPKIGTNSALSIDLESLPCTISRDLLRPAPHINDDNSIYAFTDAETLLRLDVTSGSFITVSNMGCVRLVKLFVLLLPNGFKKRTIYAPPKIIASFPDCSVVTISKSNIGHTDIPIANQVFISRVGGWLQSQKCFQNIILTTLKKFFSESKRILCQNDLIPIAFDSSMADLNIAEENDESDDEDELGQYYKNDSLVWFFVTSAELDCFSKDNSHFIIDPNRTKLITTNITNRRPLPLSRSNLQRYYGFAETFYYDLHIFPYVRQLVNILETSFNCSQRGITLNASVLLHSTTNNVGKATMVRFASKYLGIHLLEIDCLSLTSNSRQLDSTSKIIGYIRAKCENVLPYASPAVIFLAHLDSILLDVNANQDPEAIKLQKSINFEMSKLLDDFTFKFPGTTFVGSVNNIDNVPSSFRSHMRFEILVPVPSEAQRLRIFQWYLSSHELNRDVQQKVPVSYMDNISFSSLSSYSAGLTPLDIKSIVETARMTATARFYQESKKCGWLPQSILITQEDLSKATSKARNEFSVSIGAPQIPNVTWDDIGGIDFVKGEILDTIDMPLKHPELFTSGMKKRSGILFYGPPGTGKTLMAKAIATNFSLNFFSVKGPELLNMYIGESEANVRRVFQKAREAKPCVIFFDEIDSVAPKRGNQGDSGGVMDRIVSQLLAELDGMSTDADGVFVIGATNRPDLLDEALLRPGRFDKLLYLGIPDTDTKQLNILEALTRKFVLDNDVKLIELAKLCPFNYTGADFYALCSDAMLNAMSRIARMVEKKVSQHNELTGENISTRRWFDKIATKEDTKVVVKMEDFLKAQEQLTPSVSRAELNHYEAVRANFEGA

[2] = biological target: T2, Pex1 (wild type, from HisPex1GST after thrombin cleavage) (yeast, UniProt P24004 1-1043)
T2 construct: Pex1, yeast, type II AAA+ ATPase; PEX1 amplified from genomic DNA; 1,043 amino acids (from the range printed for Δ188PEX1); also called Pex1 of Pex1/6; source: E. coli Tuner (DE3), purified together with HisPex6 (Ni-NTA agarose, glutathione agarose, eluted by thrombin cleavage); not shown: GST, C-terminal, cleaved
T2 sequence (looked up): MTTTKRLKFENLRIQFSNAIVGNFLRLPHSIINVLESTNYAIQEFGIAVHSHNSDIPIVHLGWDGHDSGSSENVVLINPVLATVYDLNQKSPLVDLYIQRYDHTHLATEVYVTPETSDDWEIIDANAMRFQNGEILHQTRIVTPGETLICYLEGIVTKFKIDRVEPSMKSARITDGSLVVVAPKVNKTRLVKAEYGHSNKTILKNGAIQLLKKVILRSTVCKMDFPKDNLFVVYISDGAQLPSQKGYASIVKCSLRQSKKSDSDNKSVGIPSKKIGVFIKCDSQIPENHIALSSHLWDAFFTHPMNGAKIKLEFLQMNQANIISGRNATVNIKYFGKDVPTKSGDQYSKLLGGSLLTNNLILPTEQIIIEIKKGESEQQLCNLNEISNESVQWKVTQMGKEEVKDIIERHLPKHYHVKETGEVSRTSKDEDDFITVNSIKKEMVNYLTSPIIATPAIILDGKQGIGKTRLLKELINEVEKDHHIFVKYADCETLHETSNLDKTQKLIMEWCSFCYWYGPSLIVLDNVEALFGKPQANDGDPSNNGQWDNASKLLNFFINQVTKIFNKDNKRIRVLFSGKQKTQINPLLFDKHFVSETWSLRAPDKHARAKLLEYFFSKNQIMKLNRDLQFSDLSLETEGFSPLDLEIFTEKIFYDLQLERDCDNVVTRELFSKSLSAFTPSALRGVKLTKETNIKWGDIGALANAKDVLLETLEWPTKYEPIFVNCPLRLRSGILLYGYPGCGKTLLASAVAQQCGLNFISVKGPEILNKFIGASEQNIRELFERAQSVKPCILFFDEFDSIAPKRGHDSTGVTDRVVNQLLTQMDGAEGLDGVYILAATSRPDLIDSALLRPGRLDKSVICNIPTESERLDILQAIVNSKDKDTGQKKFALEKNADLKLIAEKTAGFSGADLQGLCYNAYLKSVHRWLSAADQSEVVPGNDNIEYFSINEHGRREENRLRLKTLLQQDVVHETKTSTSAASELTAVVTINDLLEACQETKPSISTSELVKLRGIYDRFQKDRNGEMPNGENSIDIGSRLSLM

[3] = biological target: T3, Pex1GST (Pex1 with the C-terminal GST kept) (yeast, UniProt P24004 1-1043)
T3 construct: Pex1, yeast; PEX1 cloned into pRSFDuet-cGST (GST with a thrombin cleavage site); also called HisPex1GST; source: E. coli Tuner (DE3), purified; not shown: GST, C-terminal, kept
T3 sequence (looked up): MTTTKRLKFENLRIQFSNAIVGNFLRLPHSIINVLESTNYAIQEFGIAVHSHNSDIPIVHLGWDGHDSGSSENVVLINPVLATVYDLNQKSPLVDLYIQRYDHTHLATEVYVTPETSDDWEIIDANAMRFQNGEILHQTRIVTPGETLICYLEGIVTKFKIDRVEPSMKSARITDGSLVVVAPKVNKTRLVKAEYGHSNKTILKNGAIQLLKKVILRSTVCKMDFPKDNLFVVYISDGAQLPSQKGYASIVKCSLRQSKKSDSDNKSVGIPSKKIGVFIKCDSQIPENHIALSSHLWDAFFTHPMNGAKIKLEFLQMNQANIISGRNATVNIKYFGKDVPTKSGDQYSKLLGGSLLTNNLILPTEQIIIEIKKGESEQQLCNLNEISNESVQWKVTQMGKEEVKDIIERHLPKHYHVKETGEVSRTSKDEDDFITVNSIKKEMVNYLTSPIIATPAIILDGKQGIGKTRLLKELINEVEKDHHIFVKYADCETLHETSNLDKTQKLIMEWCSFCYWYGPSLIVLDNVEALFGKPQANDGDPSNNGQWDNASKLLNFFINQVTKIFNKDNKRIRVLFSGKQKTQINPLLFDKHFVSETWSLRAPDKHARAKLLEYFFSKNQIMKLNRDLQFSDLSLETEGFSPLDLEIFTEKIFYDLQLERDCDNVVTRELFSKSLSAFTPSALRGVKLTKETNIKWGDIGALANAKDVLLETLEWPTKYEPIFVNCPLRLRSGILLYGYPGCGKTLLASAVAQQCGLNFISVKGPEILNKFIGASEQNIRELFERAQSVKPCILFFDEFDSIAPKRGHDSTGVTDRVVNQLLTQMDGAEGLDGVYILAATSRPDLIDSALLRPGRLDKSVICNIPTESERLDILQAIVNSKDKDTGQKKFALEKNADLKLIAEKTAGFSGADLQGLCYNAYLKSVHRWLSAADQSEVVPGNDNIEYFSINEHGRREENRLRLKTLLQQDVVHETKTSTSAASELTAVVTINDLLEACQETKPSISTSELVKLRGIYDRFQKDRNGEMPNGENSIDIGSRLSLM

B1: Δ188Pex1 (N-terminal truncation mutant of Pex1) (domain or fragment, yeast, UniProt P24004 189-1043, looked up)
chain: RLVKAEYGHSNKTILKNGAIQLLKKVILRSTVCKMDFPKDNLFVVYISDGAQLPSQKGYASIVKCSLRQSKKSDSDNKSVGIPSKKIGVFIKCDSQIPENHIALSSHLWDAFFTHPMNGAKIKLEFLQMNQANIISGRNATVNIKYFGKDVPTKSGDQYSKLLGGSLLTNNLILPTEQIIIEIKKGESEQQLCNLNEISNESVQWKVTQMGKEEVKDIIERHLPKHYHVKETGEVSRTSKDEDDFITVNSIKKEMVNYLTSPIIATPAIILDGKQGIGKTRLLKELINEVEKDHHIFVKYADCETLHETSNLDKTQKLIMEWCSFCYWYGPSLIVLDNVEALFGKPQANDGDPSNNGQWDNASKLLNFFINQVTKIFNKDNKRIRVLFSGKQKTQINPLLFDKHFVSETWSLRAPDKHARAKLLEYFFSKNQIMKLNRDLQFSDLSLETEGFSPLDLEIFTEKIFYDLQLERDCDNVVTRELFSKSLSAFTPSALRGVKLTKETNIKWGDIGALANAKDVLLETLEWPTKYEPIFVNCPLRLRSGILLYGYPGCGKTLLASAVAQQCGLNFISVKGPEILNKFIGASEQNIRELFERAQSVKPCILFFDEFDSIAPKRGHDSTGVTDRVVNQLLTQMDGAEGLDGVYILAATSRPDLIDSALLRPGRLDKSVICNIPTESERLDILQAIVNSKDKDTGQKKFALEKNADLKLIAEKTAGFSGADLQGLCYNAYLKSVHRWLSAADQSEVVPGNDNIEYFSINEHGRREENRLRLKTLLQQDVVHETKTSTSAASELTAVVTINDLLEACQETKPSISTSELVKLRGIYDRFQKDRNGEMPNGENSIDIGSRLSLM
notes: Pex1, yeast, gene segment corresponding to amino acids 189-1,043; source: S. cerevisiae, overexpressed (2% galactose), purified (IgG Sepharose, TEV cleavage, glycerol gradient); not shown: protein A (ProA), C-terminal, cleaved
binding result [1]: binds

B2: Pex6 (wild type, HisPex6) (natural protein, yeast, UniProt P33760 1-1030, looked up)
chain: MKASLTFSLSGIYAPCSISRDIYLEYGDKKAECLYGTIRLPQYGPGCTPGKIVHCVLDDSLPFCSIVVPSKLFGFMPTQPTMDFCYFEPILDNVVPVLDSVTFLINEQLYSKLMDLPQEMQQIQFLHYKYNINSMETVVHSRDILTSGLCQILNCSPFPQGLVDFTETQLILVNDTEQKLSALKYANEDEEYALPKIGTNSALSIDLESLPCTISRDLLRPAPHINDDNSIYAFTDAETLLRLDVTSGSFITVSNMGCVRLVKLFVLLLPNGFKKRTIYAPPKIIASFPDCSVVTISKSNIGHTDIPIANQVFISRVGGWLQSQKCFQNIILTTLKKFFSESKRILCQNDLIPIAFDSSMADLNIAEENDESDDEDELGQYYKNDSLVWFFVTSAELDCFSKDNSHFIIDPNRTKLITTNITNRRPLPLSRSNLQRYYGFAETFYYDLHIFPYVRQLVNILETSFNCSQRGITLNASVLLHSTTNNVGKATMVRFASKYLGIHLLEIDCLSLTSNSRQLDSTSKIIGYIRAKCENVLPYASPAVIFLAHLDSILLDVNANQDPEAIKLQKSINFEMSKLLDDFTFKFPGTTFVGSVNNIDNVPSSFRSHMRFEILVPVPSEAQRLRIFQWYLSSHELNRDVQQKVPVSYMDNISFSSLSSYSAGLTPLDIKSIVETARMTATARFYQESKKCGWLPQSILITQEDLSKATSKARNEFSVSIGAPQIPNVTWDDIGGIDFVKGEILDTIDMPLKHPELFTSGMKKRSGILFYGPPGTGKTLMAKAIATNFSLNFFSVKGPELLNMYIGESEANVRRVFQKAREAKPCVIFFDEIDSVAPKRGNQGDSGGVMDRIVSQLLAELDGMSTDADGVFVIGATNRPDLLDEALLRPGRFDKLLYLGIPDTDTKQLNILEALTRKFVLDNDVKLIELAKLCPFNYTGADFYALCSDAMLNAMSRIARMVEKKVSQHNELTGENISTRRWFDKIATKEDTKVVVKMEDFLKAQEQLTPSVSRAELNHYEAVRANFEGA
notes: Pex6, yeast, type II AAA+ ATPase; PEX6 amplified from genomic DNA; also called Pex6 of Pex1/6
binding result [2]: binds | binding result [3]: binds
